This passage reports Immunoreactivity (%), Cell binding, Immunoreactivity (%), ELISA and Immunoreactivity (from ID50 against unmodified control F(ab')2) results from US6953675.

Experiment [1] deals with antigen of LL2 (not named; LL2 is called an anti-B-cell monoclonal antibody). Briefly: cell binding assay, calculated from the ID50 values; cells not named.
For the next experiment, the target named is WN. Briefly: competitive binding ELISA with WN as the surrogate Ag, from ID50 values.
The target in experiment [2] is antigen of LL2 (not named; LL2 is called an anti-B-cell monoclonal antibody). Briefly: competitive binding assay; format and target not stated.
Experiment [3] has as its target antigen of hMN14 (not named). The experiment is described as above.

Regarding “LL2 F(ab')2, DOX-dextran conjugated (5.1 DOX/F(ab')2) (antibody)”, the Immunoreactivity (%), Cell binding in experiment [1] is 41.9%. The same substance registered an Immunoreactivity (%), ELISA in the experiment with WN of 42.2%.

In the case of “mLL2 F(ab')2, DTPA conjugated at random lysines (4.3 chelators/F(ab')2) (antibody)”, in experiment [2], the Immunoreactivity (from ID50 against unmodified control F(ab')2) was determined as 21%. In the case of “mLL2 F(ab')2, DTPA conjugated at random lysines (2.2 chelators/F(ab')2) (antibody)”, the Immunoreactivity (from ID50 against unmodified control F(ab')2) in experiment [2] came out at 75%. Substance “hMN14 F(ab')2 with the grafted LL2 Vk glycosylation site, LC-DTPA conjugated at the Vk-CHO (2.1 chelators/F(ab')2) (antibody)” yielded an Immunoreactivity (from ID50 against unmodified control F(ab')2) in experiment [3] of 100%. In experiment [2], “mLL2 F(ab')2, DTPA conjugated at the Vk-CHO (5.5 chelators/F(ab')2) (antibody)” yielded an Immunoreactivity (from ID50 against unmodified control F(ab')2) of 100%. “LL2 F(ab')2, non-conjugated (murine mAb, naturally glycosylated in the V domain) (antibody)”: the Immunoreactivity (%), Cell binding in experiment [1] was 100%. In the experiment with WN, this substance returned an Immunoreactivity (%), ELISA of 100%. On to “mLL2 F(ab')2, LC-DTPA conjugated at the Vk-CHO (4.6 chelators/F(ab')2) (antibody)”, for which the Immunoreactivity (from ID50 against unmodified control F(ab')2) in experiment [2] is 100%.
